{"source": "paper doi:10.1101/2024.05.08.592561", "about": "(bioRxiv, 2024)", "key": {"mass photometry": {"molecular_target": "the molecule itself", "assay": "mass photometry"}, "ParT": {"molecular_target": "T1, ParT (Streptomyces coelicolor A3(2), plasmid …, UniProt Q8VWE5 1-325)", "T1 sequence": "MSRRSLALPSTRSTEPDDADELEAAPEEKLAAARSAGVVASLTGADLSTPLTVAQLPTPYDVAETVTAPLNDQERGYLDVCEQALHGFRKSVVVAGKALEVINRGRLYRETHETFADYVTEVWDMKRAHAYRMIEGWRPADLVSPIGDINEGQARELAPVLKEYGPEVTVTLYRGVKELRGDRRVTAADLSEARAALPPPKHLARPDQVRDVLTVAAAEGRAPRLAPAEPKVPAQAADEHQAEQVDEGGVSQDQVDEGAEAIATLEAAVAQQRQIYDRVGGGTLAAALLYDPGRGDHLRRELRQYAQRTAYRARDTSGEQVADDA", "assay": "BLI"}}}
{"binder": "ParT-His6 (wild type) (natural protein) MSRRSLALPSTRSTEPDDADELEAAPEEKLAAARSAGVVASLTGADLSTPLTVAQLPTPYDVAETVTAPLNDQERGYLDVCEQALHGFRKSVVVAGKALEVINRGRLYRETHETFADYVTEVWDMKRAHAYRMIEGWRPADLVSPIGDINEGQARELAPVLKEYGPEVTVTLYRGVKELRGDRRVTAADLSEARAALPPPKHLARPDQVRDVLTVAAAEGRAPRLAPAEPKVPAQAADEHQAEQVDEGGVSQDQVDEGAEAIATLEAAVAQQRQIYDRVGGGTLAAALLYDPGRGDHLRRELRQYAQRTAYRARDTSGEQVADDA", "values": [{"measurement": "stoichiometry N", "setting": "mass photometry", "value": 2}]}
{"binder": "40-bp scrambled parS duplex (dsDNA) DNA 1: ATCGGGCACCTTAGGGCAATCGTAAGTTCGGCGCACGACC DNA 2: GGTCGTGCGCCGAACTTACGATTGCCCTAAGGTGCCCGAT", "values": [{"measurement": "binding result", "setting": "ParT", "value": "no binding"}]}
{"binder": "40-bp parS duplex (dsDNA) DNA 1: GGCCGACCTCGTGTCTCCAATTGGAGACATCAACGAGGGC DNA 2: GCCCTCGTTGATGTCTCCAATTGGAGACACGAGGTCGGCC", "values": [{"measurement": "Kd", "setting": "ParT", "value": "680 ± 200", "unit": "nM"}]}
